These results are taken from patent US20240254227A1 (Alector, published 2024).

Where a chain is given by its changes, count along the chain named.

T1: recombinant murine CD300LB overexpressed on BaF/3 cells (mouse, UniProt Q3U497 18-209)
T1 construct: Cells carry pMXs-Myc-tagged muCD300LB together with FLAG-tagged DAP12; also called muCD300LB; BaF/3 overexpressing muCD300LB
T1 sequence: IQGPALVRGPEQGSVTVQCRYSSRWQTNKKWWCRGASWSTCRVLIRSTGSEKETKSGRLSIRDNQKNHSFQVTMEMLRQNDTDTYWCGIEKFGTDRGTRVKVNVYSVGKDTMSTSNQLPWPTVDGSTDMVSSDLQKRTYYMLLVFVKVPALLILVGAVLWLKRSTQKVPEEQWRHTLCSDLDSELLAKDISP

T2: murine CD300E-Fc (mouse)
T2 construct: mouse IgG2a-Fc fusion (R&D Systems); the entry is the whole fusion chain; also called mCD300E; Mouse CD300E-Fc
T2 chain: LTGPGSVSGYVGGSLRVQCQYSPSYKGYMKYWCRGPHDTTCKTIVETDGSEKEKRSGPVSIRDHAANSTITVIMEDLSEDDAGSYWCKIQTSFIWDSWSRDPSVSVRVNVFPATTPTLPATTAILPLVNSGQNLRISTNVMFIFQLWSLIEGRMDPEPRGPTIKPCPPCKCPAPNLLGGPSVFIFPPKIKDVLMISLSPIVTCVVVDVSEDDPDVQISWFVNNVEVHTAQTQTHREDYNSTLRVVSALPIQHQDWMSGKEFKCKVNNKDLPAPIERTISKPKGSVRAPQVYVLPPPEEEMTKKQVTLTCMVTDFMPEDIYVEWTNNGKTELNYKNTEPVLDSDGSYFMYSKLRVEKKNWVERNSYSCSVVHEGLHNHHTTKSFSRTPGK

T3: murine CD300C-Fc (mouse)
T3 construct: mouse IgG2a-Fc fusion (R&D Systems); the entry is the whole fusion chain; also called mCD300C; Mouse CD300C-Fc
T3 chain: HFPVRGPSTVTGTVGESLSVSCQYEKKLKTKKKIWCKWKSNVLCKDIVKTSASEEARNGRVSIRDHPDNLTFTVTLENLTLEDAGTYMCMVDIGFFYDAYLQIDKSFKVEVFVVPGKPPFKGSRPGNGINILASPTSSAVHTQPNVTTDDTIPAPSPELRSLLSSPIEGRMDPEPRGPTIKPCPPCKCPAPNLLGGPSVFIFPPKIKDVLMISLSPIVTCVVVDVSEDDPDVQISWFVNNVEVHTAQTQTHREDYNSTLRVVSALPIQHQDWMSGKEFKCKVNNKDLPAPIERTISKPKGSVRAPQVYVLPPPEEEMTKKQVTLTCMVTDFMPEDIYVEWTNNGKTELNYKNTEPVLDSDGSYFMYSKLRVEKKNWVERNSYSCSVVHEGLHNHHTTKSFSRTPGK

B1: anti-CD300LB antibody CD-14 (antibody, V domains shown)
VH: QIQLVQSGPELKKPGETVKISCKASGYTFTDYSLHWVKQTPEKNLKWMAWINTETGAPTYADDFKGRFAFSLETSSNTAYLLINNLKNEDTATYFCALTMVNYWGQGTTLTVSS
VL: DIVMTQSQKFMSTSVGDRVSVTCKASQNVGIRVAWHQQKPGQSPKTLIYSTSYRYSGVPDRFTGSGSGTEFILTISNVQSEDLAEYFCQQYNSYPYTFGGGTKLEIK
B2: anti-CD300LB antibody CD-12 (antibody, V domains shown)
VH: QIQLVQSGPELKKPGETVKISCKASGYTFTDYSMHWVRQAPGKGLKWMAWINTETGEATHADDFKGRFDFSLDTSASTAYLQIKNLKNEDTGIYFCVCYGSSYGMDYWGQGTSVTVSS
VL: DIVLTQSPASLPVSLGQRATISCRASKSVRTSGASYMHWYQQKPGQPPKLLIYLASNLKSGVPTRFSGSGSGTDFTLNIHPVEEEDAATYYCQHNREVPPTFGGGTKLEIK
B3: anti-CD300LB antibody CD-15 (antibody, V domains shown)
VH: QIQLVQSGPELKKPGETVKISCQVSGYTFTDYSMHWLKQAPGKGLKWMAWINTETGESTYTDEFKGRFVFSLETSVRTAYLKINNLKNEDTATYFCGTYGSSYGMAYWGQGTSVTVSS
VL: B2 VL with R30S, A34S, M37L, N57K, K59E, T64A, S67R
B4: anti-CD300LB antibody CD-13 (antibody, V domains shown)
VH: QIQLVQSGPELKKPGETVKISCKASGYTFTDYSMHWVKQAPGKGFKWMAWINTETGAPTHADDFRGRFAFSLETSASTAFLQISNLKTEDTATYFCVTFGKSYGMNYWGQGTSVTVSS
VL: B2 VL with P12S, R30G, T31S, A34S, M37L, K59E, T64A, D74E, R96A
B5: anti-CD300LB antibody CD-16 (antibody, V domains shown)
VH: QIQLVQSGPELKKPGETVKISCKASGYTFTDYSMHWVKQAPGKGLKWMAWINTETGEPTYADDFRGRFAFSLETSGRTAYLEINNLRNEDTATYFCVTYGSSYGMAYWGQGTSVTVSS
VL: B2 VL with P12A, R30S, T31R, A34Y, M37L, N57K, K59E, T64A, E84A, V98I
B6: anti-CD300LB antibody CD-11 (antibody, V domains shown)
VH: QIQLVQSGPEVKKPGETVKISCKASGYTLTDYSMHWVMQTPGTGLKWMAWMNTETGEPTYADDFKGRFAFSLETSAGTAYLQIDNLKNEDTATYFCATYGKSYGMKYWGQGTSVTVSS
VL: DIVLTQSPPSLAVSLGQRATISCRATKSVSPYLHWYQQTPGQPPKLLIYLASNLDSGVPARFSGSGSGTDFTLNIHPVEEEDAATYYCQHNKELPPTFGGGTRLEIK
B7: anti-CD300LB antibody CD-10 (antibody, V domains shown)
VH: QVQLQQSGPELVRPGVSVKISCKGSGYTFTDYAMHWVKQSHVRSREWIGVIGTYNGHTNYNQKFKGKATMTVDKSSSTAYLELARLTSEDSAIYYCARSGSYYYSMDYWGQGTSVTVSS
VL: QIVLTQSPAIMSASPGEKVTMTCSASSSVNYMHWYQQKSGTSPKRWIYDTSKLSSGVPARFSGSGSGTSYSLTISTMEAEDAATYYCQQWSSNPPMTFGGGTKLEIK
B8: anti-CD300LB antibody CD-17 (antibody, V domains shown)
VH: QIQLVQSGPELKKPGETVKISCKASGYTLTDYSMHWVKQAPGKGLKWMGWINTETGEPRYGDDFKGRFAFSLETSASSAYLQINNLKNDDTATYFCATYGRSYGMDFWGQGTSVTVSS
VL: B2 VL with P12A, R30S, T31P, A34H, T64A, E85G, V98L, T106S
B9: anti-CD300LB antibody CD-18 (antibody, V domains shown)
VH: DVQLQESGPDLVKPSQSLSLTCTVTGYSITSGYSWHWIRQFPDNKLEWMGYILSRGDTNFNPSLKSRISITRSTSNNQFFLHFNSVTTEDTATYYCARDFFDYWGQGTTLTVSS
VL: DVLMTQTPLSLPVSLGDQASISCRSSQSIVHSNGNTYLEWYLQKPGQSPKLLIYKVSDRFSGVPDRFSGSGSGTDFTLKISRVEAEDLGVYFCFQGSHVPYTFGGGTKLEIK

T4 sequence (chain, as listed by the source limits assumed): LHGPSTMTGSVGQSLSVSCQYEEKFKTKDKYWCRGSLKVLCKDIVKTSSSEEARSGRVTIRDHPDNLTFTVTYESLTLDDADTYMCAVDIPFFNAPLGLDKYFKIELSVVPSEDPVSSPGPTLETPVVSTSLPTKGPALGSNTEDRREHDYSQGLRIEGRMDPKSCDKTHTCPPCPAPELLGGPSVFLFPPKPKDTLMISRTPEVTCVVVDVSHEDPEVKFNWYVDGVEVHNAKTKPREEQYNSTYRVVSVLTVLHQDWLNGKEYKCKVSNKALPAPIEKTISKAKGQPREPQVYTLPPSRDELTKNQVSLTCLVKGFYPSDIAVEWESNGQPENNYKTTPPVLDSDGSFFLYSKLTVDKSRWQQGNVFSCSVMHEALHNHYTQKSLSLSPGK

The first assay has as its target T1, recombinant murine CD300LB …. In words: flow cytometry, BaF/3 cells overexpressing muCD300LB. On the procedure:
Purified anti-CD300LB antibodies of the present disclosure were evaluated for their binding affinity to either Jurkat cells overexpressing recombinant huCD300LB or BaF/3 cells overexpressing recombinant muCD300LB. Binding of anti-CD300LB antibodies to the cells was determined as follows. Cells were harvested, washed, and labeled with propidium iodide for viability discrimination. After washing the cells with PBS, 1×10⁵ cells were aliquoted per well in 96-well U-bottom plates and incubated with 100 μL of purified anti-CD300LB antibody at various concentrations in FACS buffer (PBS+2% FBS). After this primary incubation, the supernatant was removed via centrifugation, the cells washed twice with 150 μL of ice-cold FACS buffer, and then incubated with the appropriate secondary antibody on ice for 30 minutes. Following the secondary antibody incubation, the cells were again washed twice with ice-cold FACS buffer and resuspended in a final volume of 200 L FACS buffer. Flow cytometry analysis was then performed using the FACSCanto system (BD Biosciences).
In general terms: In flow cytometry, cells or beads pass a laser one at a time.
On to B1, for which the gMFI is 19400 gMFI.

As to B2, the gMFI turned out to be 9800 gMFI.

Regarding B3, the gMFI stood at 8330 gMFI.

Turning to B4, the gMFI stood at 22100 gMFI.

In the case of B5, the gMFI was found to be 8970 gMFI.

On to B6, for which the gMFI is 10900 gMFI.

On to B7, for which the gMFI turned out to be 6260 gMFI.

Another assay concerns the target T2, murine CD300E-Fc. In words: SPR (Carterra LSA), antibody immobilised. From the text:
(§1) In addition to the screening of antibodies for cross-reactivity by FACS analysis, surface plasmon resonance (SPR) analysis was used to determine the binding of antibodies to recombinant huCD300 and muCD300 family members (orthologs) conjugated to an Fc (human CD300A-Fc SEQ ID NO:144; human CD300LB-Fc SEQ ID NO:145; human CD300C-Fc SEQ ID NO: 146; human CD300D-Fc SEQ ID NO: 147; human CD300E-Fc SEQ ID NO: 148; human CD300F-Fc SEQ ID NO: 149; murine CD300A-Fc SEQ ID NO: 150; murine CD300LB-Fc SEQ ID NO:151; murine CD300C-Fc SEQ ID NO: 152; murine CD300D-Fc SEQ ID NO: 153, and murine CD300E-Fc SEQ ID NO: 154).
(§2) Binding of mouse anti-CD300LB IgG1 antibodies of the present disclosure to human and murine CD300 orthologs were evaluated by surface plasmon resonance (SPR) using a Carterra LSA instrument (Carterra, Salt Lake City, UT). […] A HC200M sensor chip (Carterra) was activated using the single channel flow cell with a 7-minute injection of a 1:1:1 mixture of 100 mM MES pH 5.5, 100 mM sulfo-NHS, 400 mM EDC (all reconstituted in MES pH 5.5; 100 μL of each mixed in vial immediately before running assay). After switching to the multi-channel array flow cell, the antibodies were injected over the activated chip in a 96-spot array for 10 minutes. The remaining unconjugated active groups on the chip were then blocked by injecting 1M Ethanolamine pH 8.5 (Carterra) for 7 minutes using the single channel flow cell. After priming with running buffer (HBS-TE, Carterra) with 0.5 mg/ml BSA (Sigma), the immobilized anti-CD300LB antibodies were tested for their ability to bind human and mouse recombinant CD300LB extracellular domains. Human CD300 family members and mouse CD300A were hIgG1-Fc fusions, while mouse CD300LB, mouse CD300C, mouse CD300D, and mouse CD300E were mouse IgG2a-Fc fusions (R&D Systems). Binding was assessed by injecting each analyte over the entire antibody array using the single channel flow cell. CD300 analytes were diluted to 300 nM or 600 nM in running buffer and injected in series without regeneration. Two or three buffer blanks were run between each mouse or human ortholog, respectively. Data were processed and analyzed using NextGenKIT high-throughput kinetics analysis software (Carterra).
Regarding B1, the binding result is recorded as “no binding (tested: 300 nM or 600 nM)”.

On to B2, for which the binding result is on record as “no binding (tested: 300 nM or 600 nM)”.

With B3, the binding result was “no binding (tested: 300 nM or 600 nM)”.

In the case of B4, the binding result was “no binding (tested: 300 nM or 600 nM)”.

Consider B8, for which the binding result is reported as “no binding (tested: 300 nM or 600 nM)”.

B5: the binding result is given as “no binding (tested: 300 nM or 600 nM)”.

Turning to B6, the binding result is “no binding (tested: 300 nM or 600 nM)”.

With B7, the binding result is given as “no binding (tested: 300 nM or 600 nM)”.

With B9, the binding result is recorded as “no binding (tested: 300 nM or 600 nM)”.

A further assay concerns the target T4, murine CD300A-Fc (mouse).
T4 construct: hIgG1-Fc fusion; the entry is the whole fusion chain; also called mCD300A; Mouse CD300A-Fc
In words: SPR (Carterra LSA), antibody immobilised.
From the text: as §1, §2
For the molecule B1, the binding result is on record as “no binding (tested: 300 nM or 600 nM)”.

As for B2, the binding result is reported as “no binding (tested: 300 nM or 600 nM)”.

For the molecule B3, the binding result is “no binding (tested: 300 nM or 600 nM)”.

B4: the binding result is reported as “no binding (tested: 300 nM or 600 nM)”.

With B8, the binding result is listed as “no binding (tested: 300 nM or 600 nM)”.

Consider B5, for which the binding result was “no binding (tested: 300 nM or 600 nM)”.

Take B6: the binding result is reported as “no binding (tested: 300 nM or 600 nM)”.

As to B7, the binding result was “no binding (tested: 300 nM or 600 nM)”.

Consider B9, for which the binding result is “no binding (tested: 300 nM or 600 nM)”.

The target in a further assay is T3, murine CD300C-Fc. The assay is described as follows: SPR (Carterra LSA), antibody immobilised, Fc fusion at 300 or 600 nM. On the procedure: as §2
Results of anti-CD300LB antibody binding to murine CD300 family members is provided below in Table 8.
On to B1, for which the “SPR binding (control subtracted)” value was 17.9.

B2: the “SPR binding (control subtracted)” value came to 2.5.

Turning to B3, the “SPR binding (control subtracted)” value turned out to be 13.3.

B4: the “SPR binding (control subtracted)” value amounted to 43.6.

For the molecule B8, the “SPR binding (control subtracted)” value was 1.5.

For the molecule B5, the “SPR binding (control subtracted)” value was 34.5.

Take B9: the “SPR binding (control subtracted)” value was 1.5.
